# Measured values from patent US20260234655A1, “Nuclear Targeted DNA Delivery and Compositions for Use in Practicing the Same” (Seawolf Therapeutics, Inc., priority 2022, published 2026).
# B1: NFKB: benchmark DTS with NF-κB binding sites in pentameric repeat (SEQ ID NO: 140) (nucleic acid)
# DNA: GGGACTTTCCAGATTACTACTGATAGGGACTTTCCAGATTACTACTGATAGGGACTTTCCAGATTACTACTGATAGGGACTTTCCAGATTACTACTGATAGGGACTTTCC
# modifications: DNA nuclear targeting sequence within DNA cargo construct, further chemistry not given here
# Experiments:
# Format in all cases: cell-based
# [1] = system: primary human hepatocytes; assay: pDNAs containing DTSs transfected into primary human hepatocytes; GFP by quantitative live-cell imaging and FACS; conditions: 24 h post-transfection
# Excerpt: (§1) DNA construct design. Each DTS was constructed in pentameric repeat using a 15 bp spacer between each TFBS. The DTS was appended just 5′ to the promoter, effectively in a putative enhancer region. Various promoters were employed in these constructs, including CBh (a variant of the CAG promoter) and TTR. Several reporter genes were employed in these constructs, including enhanced Green Fluorescent Protein (eGFP). The polyadenylation (polyA) signal is a BGH-PolyA sequence. For pooled screening, unique molecular identifiers (UMIs; also known as barcodes) were used to distinguish between DNA constructs in a pool, and the UMIs were appended to the 3′UTR immediately downstream of the stop codon of eGFP, just preceding the BGH-PolyA sequence.
# Plasmid DNAs (pDNAs) containing various DTSs were transfected into primary human hepatocytes. GFP expression was quantified 24 h post-transfection by measuring GFP intensity using quantitative live-cell imaging, then cells were harvested and the % of GFP-positive cells was measured by FACS. A strong correlation between total GFP intensity and % GFP-positive cells was observed (FIG. 3A). The DTSs identified as hits (open circles) increased both the GFP intensity and the % GFP-positive cells compared to the Spacer negative control (FIG. 3A). […]
# [2] = system: growth-arrested HepG2 cells; assay: Arrayed DTS screen in growth-arrested HepG2 cells; GFP intensity by live-cell imaging; conditions: 24 h post-transfection
# Excerpt: as §1
# Cell culture. HepG2 cells were plated into a 384-well plate and grown for 48 hours to achieve confluency. Cell media was removed and replaced with culture media supplemented with Aphidicolin (1 uM) using EL406 automated plate washer and dispenser, then cells were transfected with DTS containing 17.5 ng plasmids using Lipofectamine 3000 without supplement. Expression of GFP was monitored using a Biotek Cytation 5 cell imaging reader over 24 hours to evaluate DTS activity. Total GFP per well was calculated and averaged over 4 well replicates.
# pDNAs containing various DTSs (Table 12) were transfected individually into growth-arrested HepG2 cells. Cell growth was inhibited to prevent dissolution of the nuclear envelope. GFP expression was quantified over a period of 24 h post-transfection by measuring GFP intensity using quantitative live-cell imaging. Statistical analysis and hierarchical clustering methods were used to easily differentiate strong DTSs from weak DTSs in a heatmap (FIG. 5A). […] DTS.203: CREB1, PPARA, ONECUT1, HNF4A, PPARA. DTS.233: HNF1A, NR113, PPARA, HNF1A, PPARA. DTS.276: FOXA1, HNF4A, HNF1A, HNF4A, HNF1A.
# For the arrayed screen, pDNAs containing various DTSs were transfected individually into growth-arrested HepG2 cells. For the pooled screen, pDNAs containing various DTSs were pooled together and transfected as a pool into growth-arrested HepG2 cells. Cell growth was inhibited to prevent dissolution of the nuclear envelope, which improves the accuracy of measuring DTS activity related to nuclear translocation. For the arrayed screen, GFP protein expression was quantified 24 h post-transfection by measuring GFP intensity using quantitative live-cell imaging. For the pooled screen, mRNA abundance for each DTS variant was determined using RNA-seq by deconvoluting the read counts for each UMI. A strong correlation between protein expression in the arrayed screen and mRNA expression in the pooled screen was observed (FIG. 6). […] Pooled screening can thus be used to quickly and reliably identify strong DTSs.
# [3] = system: growth-arrested HepG2 cells; assay: Pooled DTS screen in growth-arrested HepG2 cells; mRNA abundance by RNA-seq of UMIs
# Excerpt: Library cloning. Pooled DTS libraries were designed as described above. To ensure the highest quality library production of oligos for cloning, oligo lengths were standardized to 300 bp. To accommodate this standardized length the core sequence of each DTS was embedded center-justified in a neutral fragment of random DNA sequence. The flanks of each oligo contained unique golden gate restriction enzyme digestion sites (Bsal) for cloning of double stranded DNA into screening vectors. […] The proper UMI/DTS barcode correlation (termed here the “library registry”) was determined via excision of the hTTR/eGFP fragments, re-ligation of the vector, PCR amplification of the corresponding proximal DTS and UMI regions, and sequencing on an Illumina Miseq (2×150 bp reads). […]
# Quantification of mRNA abundance from pooled DTS screens. […] The PCR amplified cDNA was then library prepped (NEBNext library prep for Illumina) and sequenced on an Illumina Miseq (2×150 bp reads). Counts for each UMI were translated into the corresponding DTS using the UMI/Barcode registry and changes in abundance of each DTS were statistically analyzed using a custom R script. The log 2 fold change is calculated by comparing the RNA level in the pool vs. its expected abundance, which is derived from the abundance in the corresponding input DNA pool. […]
molecule,measurement,setting,value
B1,gene expression compared to the pDNA with no DTS,[1],robust increases
same,increase in GFP intensity compared to the pDNA with no DTS,[1],~10 fold
same,GFP intensity / gene expression in arrayed screen compared to Spacer negative control,[2],robust increases
same,mRNA abundance in pooled screen relative to Spacer negative control,[3],robust increases
